Source: article PMC2778851

How the values were obtained:
[1] = target: His-HTLV-1 125 PR (N-terminally His-tagged full-length stabilized HTLV-1 protease) (Human T-lymphotropic virus type 1 (HTLV-1)); experiment: pull-down
[2] = target: HTLV-1 120 PR (HTLV-1 protease shortened by 5 C-terminal residues) (Human T-lymphotropic virus type 1 (HTLV-1)); experiment: activity-based dimerization assay
[3] = target: HTLV-1 125 PR (stabilized full-length HTLV-1 protease) (Human T-lymphotropic virus type 1 (HTLV-1)); experiment: SEC
[4] = target: HTLV-1 125 PR (stabilized full-length HTLV-1 protease) (Human T-lymphotropic virus type 1 (HTLV-1)); experiment: activity-based dimerization assay

HTLV-1 115 PR (HTLV-1 protease shortened by 10 C-terminal residues) (domain or fragment)
densitometric ratio of the untagged to the His-tagged band (115/H125) [1]: 37.3

HTLV-1 120 PR (HTLV-1 protease shortened by 5 C-terminal residues) (domain or fragment)
Kd [2]: > 3000 nM
densitometric ratio of the untagged to the His-tagged band (120/H125) [1]: 37.2

HTLV-1 125 PR (stabilized full-length HTLV-1 protease) (enzyme)
stoichiometry N [3]: 2
Kd [4]: 491 nM
densitometric ratio of the untagged to the His-tagged band (125/H125) [1]: 84.9
